Data published in patent US20100184648A1 (published 2010).

How the values were obtained:
Experiment in all cases: receptor inhibition assay at 10 µM Compound A, ratio relative to a control compound
[1] = biological target: Glutamate AMPA receptor
Method: (§1) The inhibitory action of Compound A against various receptors listed in Table 2 was examined to evaluate the specificity of Compound A. The activities of the receptors were measured by using an appropriate assay system according to the property of the respective receptors. Further, the evaluation results of Compound A were calculated as an inhibition ratio at a final concentration of 10 μM. Here, the inhibition ratio was calculated based on a value of a control compound in each assay. As is apparent from the results shown in Table 2, it was confirmed that Compound A is specific to an MCH receptor. Incidentally, examination was carried out with regard to 173 kinds of physiologically functional proteins including the receptors shown in Table 2, however, the affinity thereof could not be found other than the MCH receptors, and only major receptors are shown in Table 2.

[2] = biological target: Neuropeptide Y1 receptor
Method: as §1

[3] = biological target: Histamine H3 receptor
Method: as §1

[4] = biological target: Muscarine M1 receptor
Method: as §1

B1: Compound A (peptide)
peptide: RCMXRVYXC
modifications: N-terminal acetyl on Arg 1 (printed Arg-C(=O)CH3); C-terminal amide on Cys 9 (printed H2N-Cys); X at positions 4 and 8 = Ava (5-aminovaleric acid); the two Cys residues (2 and 9) are bound to each other through a -SS- bond
notes: Synthetic cyclic peptide with two non-natural Ava residues; The direction of the printed formula is interpreted; also called MCH1R antagonist; H2N-Cys-Ava-Tyr-Val-Arg-Ava-Met-Cys-Arg-C(=O)CH3
Work on B1 yielded an Inhibition ratio [1] of 8, an Inhibition ratio [2] of 17 and an Inhibition ratio [3] of -6. It also gave an Inhibition ratio [4] of 0.
